Target: formyl peptide receptor (FPR1) on U87 astrocytoma cells (human (endogenous in U87)) (UniProt P21462)
Assay: flow cytometry on cells

Chain of UniProt P21462 (P21462 whole entry): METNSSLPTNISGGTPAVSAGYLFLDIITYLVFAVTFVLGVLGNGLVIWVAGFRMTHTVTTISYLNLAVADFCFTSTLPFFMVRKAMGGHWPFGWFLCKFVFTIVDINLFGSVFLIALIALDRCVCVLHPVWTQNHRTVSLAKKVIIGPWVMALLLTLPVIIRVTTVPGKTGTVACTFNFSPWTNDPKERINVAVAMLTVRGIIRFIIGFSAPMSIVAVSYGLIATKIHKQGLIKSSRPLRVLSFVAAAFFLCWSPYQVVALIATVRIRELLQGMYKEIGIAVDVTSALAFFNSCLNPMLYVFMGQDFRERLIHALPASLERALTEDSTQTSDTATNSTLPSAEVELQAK

Q: How did the percent inhibition of fMLF-FITC binding at 100 ug/ml CHIPS turn out when “Chemotaxis Inhibitory Protein of S. aureus (CHIPS) (from UniProt A6QIG7 29-149) (natural protein)” was run?
A: 81%

From paper PMC3593554
